# Assays:
# Assay in all cases: SPR (Biacore), 1:1 binding fit
# RBD突变型(N501Y) = biological target: T1, RBD突变型(N501Y) (SARS-CoV-2, UniProt P0DTC2 319-541)
# T1 construct: domain: RBD
# [1] = biological target: T2, RBD突变型(K417T E484K N501Y) (SARS-CoV-2, UniProt P0DTC2 319-541)
# T2 construct: domain: RBD
# [2] = biological target: T3, RBD突变型(K417N E484K N501Y) (SARS-CoV-2, UniProt P0DTC2 319-541)
# T3 construct: domain: RBD
binder,measurement,setting,value
"人源化新冠病毒中和性抗体nCoV-00D (antibody, V domains shown, also called nCoV-00D抗体) VH: QVQLQQSGAELVKPGASVKLSCKTSGYTFTRYYIYWVKQRPGQGLEWIGEINPNNGGTNFNEKFKSKATLTVDKSSNTAYMQLSSLTSEDSAVYYCTIFITTVIARDYWGQGTLVTVSA VL: DIVLTQSPASLAVSLGQRATISCRASESVEYSGTTLMQWFQQKPGQPPKLLIYAASNVESGVPARFSGSGSGTDFSLNIHPVEEDDVAMYFCHQSREVPWTFGGGTKLEIKR",Kd,RBD突变型(N501Y),0.246 pM
same,koff,RBD突变型(N501Y),9.51e-08 s⁻¹
same,kon,RBD突变型(N501Y),387000 M⁻¹ s⁻¹
same,Kd,[1],0.53 pM
same,koff,[1],1.98e-08 s⁻¹
same,kon,[1],37400 M⁻¹ s⁻¹
same,Kd,[2],7.91 pM
same,koff,[2],2.35e-07 s⁻¹
same,kon,[2],29700 M⁻¹ s⁻¹

# — CN113461812A (BEIJING LUFEI BIOTECHNOLOGY CO LTD, dated 2021)
